Reference: US20260049134A1 (UNIVERSITY OF FLORIDA RESEARCH FOUNDATION, published 2026)
Changes are numbered by the printed parent chain. Names may count otherwise. Values belong to the binder of their own block, whether it stands above or below them.

Assays:
[1] = target: T1, ICAM1, endogenous in H929 multiple myeloma cells (human, UniProt P05362 28-532); experiment: flow cytometry, H929 + vehicle; None 513
T1 construct: Native protein on H929 cells (flow cytometry, siRNA knockdown) and in H929 lysates (IP/MS); also called CD54
T1 sequence (P05362 28-532 limits assumed): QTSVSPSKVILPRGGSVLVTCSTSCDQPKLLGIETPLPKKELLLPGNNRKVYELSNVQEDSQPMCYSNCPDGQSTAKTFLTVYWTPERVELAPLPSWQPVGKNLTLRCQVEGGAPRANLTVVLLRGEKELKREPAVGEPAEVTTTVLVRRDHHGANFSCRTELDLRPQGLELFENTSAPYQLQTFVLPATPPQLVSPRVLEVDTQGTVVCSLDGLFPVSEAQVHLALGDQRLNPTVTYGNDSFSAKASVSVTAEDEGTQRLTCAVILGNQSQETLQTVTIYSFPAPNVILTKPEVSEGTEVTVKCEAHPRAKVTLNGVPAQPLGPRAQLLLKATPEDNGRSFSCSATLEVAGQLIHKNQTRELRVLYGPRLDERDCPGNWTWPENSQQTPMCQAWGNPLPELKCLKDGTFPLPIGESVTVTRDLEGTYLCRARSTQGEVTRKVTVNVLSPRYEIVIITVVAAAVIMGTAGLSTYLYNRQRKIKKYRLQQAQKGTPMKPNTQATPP

[2] = target: T1, ICAM1, endogenous in H929 multiple …; experiment: flow cytometry, IgG1 on H929 cells
Description: Staining protocol. Cells were harvested (5×10⁴ cells per sample), washed once with phosphate-buffered saline (PBS) at RT, and a second time with ice-cold FACS buffer (PBS, 0.5% BSA, 2 mM EDTA, 0.1% NaN₃). Cells were stained in 50 μL of primary antibody for 30 min on ice, washed twice with 100 μL FACS buffer, stained with 50 μL of diluted secondary antibody, washed two more times in FACS, and then resuspended in 50 μL FACS buffer. Samples were acquired on an Accuri C6 Plus or a BD FACSCanto II flow cytometer (both from BD Biosciences). Data were analyzed using FlowJo version 10 software. Primary antibodies: Fab (10 μg/mL), IgG1 (0.1 to 50 μg/mL), or 25 μL polyclonal Fabs from periplasmic extracts. Polyclonal Fabs were produced by diluting bacterial stocks by a factor of 100 in autoinduction media and incubating overnight to induce expression as previously described. […] Viability stains: DAPI (Cell Signaling Technology) or SYTOX AADvanced Dead Cell Stain (Thermo Fisher Scientific). Labeling: The panel of chimeric rabbit/human IgG1s was labeled using the Alexa Fluor 647 Labeling Kit (Thermo Fisher Scientific, #A20173) to facilitate single-step staining. Competition: Unlabeled IgG1s were added at saturating concentrations of 60 μg/mL to block the target receptors, incubating on ice for 30 min, followed by the addition of an equal volume of the Alexa Fluor 647 labeled antibody at 2 μg/mL, and the mixture was incubated on ice for another 30 min.

[3] = target: T2, CADM1, endogenous in H929 multiple myeloma cells (human, UniProt Q9BY67 45-442); experiment: flow cytometry, H929 + ICAM1 siRNA; None 455
T2 construct: Native protein on H929 cells (flow cytometry, siRNA knockdown) and in H929 lysates (IP/MS); RPMI-8226 cells were used for sorting with HW-97; also called IGSF4A
T2 sequence: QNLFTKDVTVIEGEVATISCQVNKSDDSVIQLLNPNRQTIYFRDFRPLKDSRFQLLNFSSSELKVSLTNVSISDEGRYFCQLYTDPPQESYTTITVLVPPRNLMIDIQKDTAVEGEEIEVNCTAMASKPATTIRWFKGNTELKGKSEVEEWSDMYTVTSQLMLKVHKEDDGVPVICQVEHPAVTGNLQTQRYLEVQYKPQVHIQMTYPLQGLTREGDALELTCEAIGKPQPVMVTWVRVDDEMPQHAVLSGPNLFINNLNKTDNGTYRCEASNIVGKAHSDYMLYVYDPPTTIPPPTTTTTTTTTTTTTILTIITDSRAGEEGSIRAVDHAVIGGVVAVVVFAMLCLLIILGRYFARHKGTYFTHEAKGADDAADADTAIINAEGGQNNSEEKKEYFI

[4] = target: T3, GARS, endogenous in H929 multiple myeloma cells (human, UniProt P41250 37-739, limits assumed); experiment: IP from H929 cell lysate, LC-MS/MS, spectral counts
T3 construct: Native protein pulled down from H929 lysates; also called Glycyl-tRNA synthetase; GlyRS
T3 sequence: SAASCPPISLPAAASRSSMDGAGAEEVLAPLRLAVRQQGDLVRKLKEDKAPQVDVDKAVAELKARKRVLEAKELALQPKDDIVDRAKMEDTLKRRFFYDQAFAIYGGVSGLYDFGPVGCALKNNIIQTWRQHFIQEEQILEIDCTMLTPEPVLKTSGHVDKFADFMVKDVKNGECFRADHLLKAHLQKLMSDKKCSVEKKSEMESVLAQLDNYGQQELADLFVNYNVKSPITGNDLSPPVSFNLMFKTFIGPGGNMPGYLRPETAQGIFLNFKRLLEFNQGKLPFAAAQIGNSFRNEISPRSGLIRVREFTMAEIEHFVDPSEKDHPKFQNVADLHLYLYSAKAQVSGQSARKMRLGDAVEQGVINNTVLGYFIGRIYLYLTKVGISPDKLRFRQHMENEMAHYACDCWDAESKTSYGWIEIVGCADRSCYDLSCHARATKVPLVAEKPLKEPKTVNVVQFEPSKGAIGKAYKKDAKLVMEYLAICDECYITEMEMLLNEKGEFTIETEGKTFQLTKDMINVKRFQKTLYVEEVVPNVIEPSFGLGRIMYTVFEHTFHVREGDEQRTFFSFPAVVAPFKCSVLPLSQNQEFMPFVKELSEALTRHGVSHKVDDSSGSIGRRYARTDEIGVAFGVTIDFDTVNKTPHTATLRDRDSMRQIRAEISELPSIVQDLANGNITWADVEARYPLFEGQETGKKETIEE
Description: Immunoprecipitation. […] After 30 min of rocking at 4° C., and lysates were centrifuged at 18,400×g for 20 min at 4° C. Subsequently, 1-mL aliquots of the supernatants were pre-cleared twice with Protein G agarose (Thermo Fisher Scientific) by adding 50 μL of 50% resin slurry and incubating 30 min with end-over-end tumbling at 4° C., followed by centrifugation at 16,000×g for 5 min and pooling of the pre-cleared cell lysate aliquots. Representative mAbs from each cluster were immobilized on Protein G agarose at a ratio of 25 μg IgG1 per 30 μL of 50% slurry, diluted to 500 μL with Dulbecco's PBS (DPBS) and incubated for 1 h at 4° C. with tumbling, followed by centrifugation at 5,000×g for 30 s and 2 washes with lysis buffer. After the last wash, the ˜15 μL of IgG1-coated resin was blocked with 10 μL of 10% BSA (MilliporeSigma). Next, 1 mL of the pooled pre-cleared cell lysate was added to the IgG1-coated resin and incubated for 3 h at 4° C. with tumbling. […] Finally, 16 μL of the eluate (˜20%) was analyzed on a reducing SDS-PAGE gel stained with SYPRO Ruby dye (Bio-Rad Laboratories), while the rest was stored at −80° C. prior to LC-MS/MS analysis. […]

mAb binding (MFI) [1]: 595
B1: TH9-0022 (antibody, human IgG1, kappa, L234A L235A, V domains shown)
VH: QSLEESGGRLVTPGTPLTLTCTVSGFSLSSYAMNWVRQAPGKGLEWIGIINSYGSTYYASWAKGRFTISKTSTTVDLKITSPTTEDTATYFCARVTYDSYGYGYAPYGMDLWGPGTLVTVSS
VL: LVMTQTPSSTSNAVGGTVTIKCQASQSIGNVLAWYQQKPGQPPKLLIYAASTLASGVPSRVGGSRSGTEYTLTISGVQREDAATYYCLGSDSDSDIAFGGGTELEILR
notes: also called TH9-022; negative control

antibody-bound positive cells (%) [2]: 2.7%
B2: TH9-0022 (antibody, human IgG1, kappa, L234A L235A, V domains shown)
VH: B1 VH
VL: B1 VL
notes: also called TH9-022; negative control IgG1

mAb binding (MFI) [3]: 9430
B3: HW-97 chimeric rabbit-human IgG1 LA/LA/PG (antibody, V domains shown)
VH: QKQLVESGGRLVTPGTPLTLTCTVTGIDLSSHGMSWVRQAPGKGLEWIGVIYPSGSTWYASWARGRFTISKTSTTVDLKMTSLTTEDTATHFCARGDVGGADNNIWGPGTLVTVSS
VL: SFVLTQPASVQVDLGQTVSLTCTAETLSRSYASWYQQKPGQAPVLLIYRDTSRPSGVPDRFSGSSSGNTATLTISGAQAGDEADYYCATSDGSGSSYQYVFGGGTQLTVTG
notes: Fc-silenced (L234A/L235A/P329G) IgG1, lambda; Alexa Fluor 647-labeled in single-step flow cytometry; Prototype of cluster C-97

antibody-bound positive cells (%) [2]: 95.8% | mAb binding (MFI) [1]: 49100 | binding result [4]: no binding
B4: HW-113 chimeric rabbit-human IgG1 LA/LA/PG (antibody, V domains shown)
VH: QKQLVESGGGLVQPGGSLTLTCTVSGFSLNKYYMGWFRQAPGKGLEWIGVISRSGDTYYSSWAKGRFTISKASTTVDLRITSPTTEDTATYFCARDASSPGFHGDRLDLWGQGTLVTVSS
VL: B3 VL with D13N, E25D, S93I, S96N, Q98L, Y99W
notes: Fc-silenced (L234A/L235A/P329G) IgG1, lambda; Alexa Fluor 647-labeled in single-step flow cytometry

mAb binding (MFI) [3]: 6390 | binding result [4]: no binding
B5: HW-101 chimeric rabbit-human IgG1 LA/LA/PG (antibody, V domains shown)
VH: QEQLVESGGRLVTPGTPLTLTCKASGFSLGKYDMSWVRQAPGKGLEWIGTIYAGSGSTWYASWAKGRFTISKTSTTVDLKMTSLTTEDTATYFCARDFLGVNSIWGPGTLVTISS
VL: B3 VL with D13N, E25D, G40D, Y48H, S65N, S96N, Y97F, Q98H, Y99F
notes: Fc-silenced (L234A/L235A/P329G) IgG1, lambda; Alexa Fluor 647-labeled in single-step flow cytometry; Cluster C-97
